Test results from patent US20100285028A1.

Biological target: von Willebrand factor (mouse) (UniProt Q8CIZ8)
Assay: cell-based or functional assay

UniProt Q8CIZ8, sequence (Q8CIZ8 764-2813 limits assumed): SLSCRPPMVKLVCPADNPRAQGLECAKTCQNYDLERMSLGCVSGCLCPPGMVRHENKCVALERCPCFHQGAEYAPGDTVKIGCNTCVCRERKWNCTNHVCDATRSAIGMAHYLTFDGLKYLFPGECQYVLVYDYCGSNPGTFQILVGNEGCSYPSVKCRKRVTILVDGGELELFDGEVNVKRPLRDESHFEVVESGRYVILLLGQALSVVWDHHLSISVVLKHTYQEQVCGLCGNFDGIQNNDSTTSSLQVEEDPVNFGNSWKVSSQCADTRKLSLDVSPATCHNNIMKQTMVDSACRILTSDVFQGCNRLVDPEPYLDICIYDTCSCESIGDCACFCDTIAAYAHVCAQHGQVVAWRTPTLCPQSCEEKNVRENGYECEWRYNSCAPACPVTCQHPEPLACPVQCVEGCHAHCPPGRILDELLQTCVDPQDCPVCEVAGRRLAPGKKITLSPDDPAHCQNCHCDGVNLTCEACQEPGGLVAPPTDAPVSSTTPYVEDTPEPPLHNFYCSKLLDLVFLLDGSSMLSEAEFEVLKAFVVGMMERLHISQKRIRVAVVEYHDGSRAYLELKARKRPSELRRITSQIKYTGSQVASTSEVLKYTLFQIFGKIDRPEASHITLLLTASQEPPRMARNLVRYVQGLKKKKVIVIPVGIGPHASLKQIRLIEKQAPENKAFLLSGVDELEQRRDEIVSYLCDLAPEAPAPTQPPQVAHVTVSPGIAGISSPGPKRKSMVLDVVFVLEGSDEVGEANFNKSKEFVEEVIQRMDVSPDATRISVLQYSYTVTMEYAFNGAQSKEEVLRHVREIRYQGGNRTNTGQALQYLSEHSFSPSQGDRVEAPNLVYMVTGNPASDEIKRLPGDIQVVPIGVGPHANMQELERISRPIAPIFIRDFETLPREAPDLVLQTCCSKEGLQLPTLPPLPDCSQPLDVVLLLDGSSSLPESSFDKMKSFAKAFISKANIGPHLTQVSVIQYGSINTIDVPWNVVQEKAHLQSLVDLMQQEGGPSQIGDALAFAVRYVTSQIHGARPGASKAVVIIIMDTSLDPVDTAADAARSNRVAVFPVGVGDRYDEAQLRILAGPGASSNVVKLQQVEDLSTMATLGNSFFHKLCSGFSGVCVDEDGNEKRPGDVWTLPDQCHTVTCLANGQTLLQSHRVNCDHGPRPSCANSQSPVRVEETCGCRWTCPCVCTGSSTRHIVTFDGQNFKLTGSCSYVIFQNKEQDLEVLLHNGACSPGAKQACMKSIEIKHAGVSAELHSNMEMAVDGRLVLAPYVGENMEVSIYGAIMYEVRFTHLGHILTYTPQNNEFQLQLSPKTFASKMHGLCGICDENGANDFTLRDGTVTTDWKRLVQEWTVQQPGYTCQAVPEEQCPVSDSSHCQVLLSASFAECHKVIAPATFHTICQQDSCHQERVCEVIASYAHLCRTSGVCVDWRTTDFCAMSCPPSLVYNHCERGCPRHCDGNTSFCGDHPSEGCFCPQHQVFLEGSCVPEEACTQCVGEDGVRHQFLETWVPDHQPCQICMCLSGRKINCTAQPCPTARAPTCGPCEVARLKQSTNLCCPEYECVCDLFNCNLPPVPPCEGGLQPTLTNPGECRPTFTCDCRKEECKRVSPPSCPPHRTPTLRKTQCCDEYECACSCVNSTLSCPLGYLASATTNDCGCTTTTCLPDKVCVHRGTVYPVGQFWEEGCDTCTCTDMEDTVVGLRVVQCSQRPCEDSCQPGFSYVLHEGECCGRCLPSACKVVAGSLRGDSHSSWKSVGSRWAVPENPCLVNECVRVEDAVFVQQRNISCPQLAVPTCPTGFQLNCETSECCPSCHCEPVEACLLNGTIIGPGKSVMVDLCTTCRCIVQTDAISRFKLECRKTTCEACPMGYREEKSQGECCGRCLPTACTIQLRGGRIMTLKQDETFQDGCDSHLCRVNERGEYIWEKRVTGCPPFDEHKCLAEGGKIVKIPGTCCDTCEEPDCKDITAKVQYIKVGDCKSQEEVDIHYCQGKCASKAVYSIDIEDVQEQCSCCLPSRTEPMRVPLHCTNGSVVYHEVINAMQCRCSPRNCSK

Substance: Asgr-1 chain of the Ashwell receptor (from UniProt P34927 1-284)
- circulating plasma vWF abundance in mice lacking Asgr-1: 1.5 fold
